Patent US20240158497A1 (published 2024)

B1: bsAb19139D (bispecific antibody, V domains shown)
VH 1: QVQLVESGGGVVQPGRSLRLSCTASGFTFSSYAMYWVRQAPGKGLEWVSVIYYDGSYKYYADSVKGRFTISRDNSKNTLYLQMDSLRAEDTAVYYCASYNWNYWYFDFWGRGTLVTVSS
VH 2: QVQLVESGGGVVQPGGSLRLSCAASGFTFSTYDIHWVRQAPGKGLEWVAVISFDGSNRNYGDSVKGRFTISRDNSDNTLFLEMNNLRFEDTAVYYCAKEGYGVDFQHWGQGTLVTVSS
VL: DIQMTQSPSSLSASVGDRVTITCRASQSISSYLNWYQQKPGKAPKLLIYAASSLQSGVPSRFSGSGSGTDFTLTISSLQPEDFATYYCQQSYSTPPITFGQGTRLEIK
notes: two different heavy chains with a common light chain
B2: bsAb19140D (bispecific antibody, V domains shown)
VH 1: B1 VH 1
VH 2: QVQLQESGPGLVKPSETLSLTCTVSGGSISNYYWTWIRQPPGKGLEWIGHISNSGTTNYNPSLKSRVTISVDTSKNQFSLKLTSVTAADTAVYYCARLPLGIAAVDTDYYYYFGMDVWGQGTTVTVSS
VL: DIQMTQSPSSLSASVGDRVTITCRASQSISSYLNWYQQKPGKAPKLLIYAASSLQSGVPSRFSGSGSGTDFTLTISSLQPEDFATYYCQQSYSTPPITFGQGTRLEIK
notes: common light chain
B3: bsAb19142D (bispecific antibody, V domains shown)
VH 1: B1 VH 1
VH 2: EVQLVESGGGLVQPGGSLRLSCAASGLTFSSYEMNWVRQAPGKGLEWVSHISSAGSTKYYADSVKGRFTISRDNAKNSLFLQMNSLRAEDTAIYYCAGYNYAYYYFGVDVWGQGTTVTVSS
VL: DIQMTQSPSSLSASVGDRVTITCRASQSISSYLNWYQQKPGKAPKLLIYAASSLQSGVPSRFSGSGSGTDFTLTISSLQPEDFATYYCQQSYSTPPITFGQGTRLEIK
notes: common light chain
B4: bsAb19141D (bispecific antibody, V domains shown)
VH 1: B1 VH 1
VH 2: EVQLVESGGGVVRPGGSLRLSCTASGFTFDDYGMSWVRQAPGKGLEWVSGINWNGGRTEYADAVKGRFIISRDNAKNSLYLQMNSLRAEDTALYFCARTELRWDYWGQGTLVTVSS
VL: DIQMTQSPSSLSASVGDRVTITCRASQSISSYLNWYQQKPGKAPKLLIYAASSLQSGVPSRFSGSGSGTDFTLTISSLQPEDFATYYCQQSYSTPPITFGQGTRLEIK
notes: common light chain

These binders were tested against T1, human LEPR extracellular domain expressed with a C-terminal myc-myc-hexahistidine tag (human, UniProt P48357 22-839) (assay: SPR Biacore 4000, bsAb captured by anti-human Fc, 25 C).
T1 construct: Monomeric reagent; the whole entry is the construct with its tag; also called hLEPR-MMH; hLEPR.mmh
Method: (§1) Equilibrium dissociation constants (KD values) for LEPR and GP130 binding to purified anti-LEPR/GP130 bispecific antibodies were determined using a real-time surface plasmon resonance biosensor using a Biacore 4000 instrument. All binding studies were performed in 10 mM HEPES, 150 mM NaCl, 3 mM EDTA, and 0.05% v/v Surfactant Tween-20, pH 7.4 (HBS-ET) running buffer at 25° C. and 37° C. The Biacore sensor surface was first derivatized by amine coupling with a monoclonal mouse anti-human Fc antibody (GE, #BR-1008-39) to capture anti-LEPR/GP130 bispecific antibodies. […] Different concentrations of LEPR or GP130 reagents were first prepared in HBS-ET running buffer (100 nM-3.7 nM; 3-fold serial dilution) and were injected over anti-human Fc captured anti-LEPR/GP130 bispecific antibody surface for 4 minutes at a flow rate of 30 μL/minute, while the dissociation of bispecific antibody bound LEPR or GP130 reagent was monitored for 10 minutes in HBS-ET running buffer. Kinetic association (kₐ) and dissociation (kd) rate constants were determined by fitting the real-time binding sensorgrams to a 1:1 binding model with mass transport limitation using Scrubber 2.0c curve-fitting software. Binding dissociation equilibrium constants (KD) and dissociative half-lives (t ½) were calculated from the kinetic rate constants as: […]

T1 sequence (P48357 other isoform, or with tags, fused parts or gaps): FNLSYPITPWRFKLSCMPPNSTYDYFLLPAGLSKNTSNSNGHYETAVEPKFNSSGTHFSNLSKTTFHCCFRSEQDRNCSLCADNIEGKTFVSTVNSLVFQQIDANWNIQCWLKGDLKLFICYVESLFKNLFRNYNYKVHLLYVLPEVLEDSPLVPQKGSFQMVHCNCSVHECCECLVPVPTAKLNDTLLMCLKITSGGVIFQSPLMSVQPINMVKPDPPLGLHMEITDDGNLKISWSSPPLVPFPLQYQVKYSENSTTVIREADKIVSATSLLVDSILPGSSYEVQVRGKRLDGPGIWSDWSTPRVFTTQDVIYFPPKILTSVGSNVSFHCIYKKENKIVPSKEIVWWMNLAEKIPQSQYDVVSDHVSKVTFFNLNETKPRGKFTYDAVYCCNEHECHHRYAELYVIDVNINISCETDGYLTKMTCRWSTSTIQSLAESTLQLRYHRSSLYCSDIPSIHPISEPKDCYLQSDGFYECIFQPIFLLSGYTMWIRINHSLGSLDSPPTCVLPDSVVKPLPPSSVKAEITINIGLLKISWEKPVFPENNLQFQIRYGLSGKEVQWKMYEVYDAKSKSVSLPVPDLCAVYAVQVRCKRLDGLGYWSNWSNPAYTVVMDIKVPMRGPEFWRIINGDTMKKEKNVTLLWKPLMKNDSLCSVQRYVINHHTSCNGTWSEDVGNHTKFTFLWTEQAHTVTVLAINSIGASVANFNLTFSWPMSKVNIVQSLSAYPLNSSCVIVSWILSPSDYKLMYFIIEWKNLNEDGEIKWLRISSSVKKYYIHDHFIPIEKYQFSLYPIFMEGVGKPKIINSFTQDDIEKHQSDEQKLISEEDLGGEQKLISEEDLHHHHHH

Row | 100 nM hLEPR-MMH Bound (RU) | Kd [nM] | koff [s⁻¹] | kon [M⁻¹ s⁻¹] | t½ [min] | Binder
1 | 41 | 7.09 | 0.000171 | 24100 | 68 | B1
2 | 47 | 7.36 | 0.00018 | 24500 | 64 | B2
3 | 46 | 7.76 | 0.000175 | 22500 | 66 | B3
4 | 45 | 5.91 | 0.000151 | 25400 | 77 | B4

Each binder was assayed against T2, Macaca Fascicularis LEPR extracellular domain expressed with a C-terminal myc-myc-hexahistidine tag (Macaca fascicularis, UniProt Q9MYL0 22-837 (rhesus entry)) in the same assay as above.
T2 construct: Monomeric reagent; the whole entry is the construct with its tag; also called mfLEPR-MMH
Method: as §1

T2 sequence (Q9MYL0 other isoform, or with tags, fused parts or gaps): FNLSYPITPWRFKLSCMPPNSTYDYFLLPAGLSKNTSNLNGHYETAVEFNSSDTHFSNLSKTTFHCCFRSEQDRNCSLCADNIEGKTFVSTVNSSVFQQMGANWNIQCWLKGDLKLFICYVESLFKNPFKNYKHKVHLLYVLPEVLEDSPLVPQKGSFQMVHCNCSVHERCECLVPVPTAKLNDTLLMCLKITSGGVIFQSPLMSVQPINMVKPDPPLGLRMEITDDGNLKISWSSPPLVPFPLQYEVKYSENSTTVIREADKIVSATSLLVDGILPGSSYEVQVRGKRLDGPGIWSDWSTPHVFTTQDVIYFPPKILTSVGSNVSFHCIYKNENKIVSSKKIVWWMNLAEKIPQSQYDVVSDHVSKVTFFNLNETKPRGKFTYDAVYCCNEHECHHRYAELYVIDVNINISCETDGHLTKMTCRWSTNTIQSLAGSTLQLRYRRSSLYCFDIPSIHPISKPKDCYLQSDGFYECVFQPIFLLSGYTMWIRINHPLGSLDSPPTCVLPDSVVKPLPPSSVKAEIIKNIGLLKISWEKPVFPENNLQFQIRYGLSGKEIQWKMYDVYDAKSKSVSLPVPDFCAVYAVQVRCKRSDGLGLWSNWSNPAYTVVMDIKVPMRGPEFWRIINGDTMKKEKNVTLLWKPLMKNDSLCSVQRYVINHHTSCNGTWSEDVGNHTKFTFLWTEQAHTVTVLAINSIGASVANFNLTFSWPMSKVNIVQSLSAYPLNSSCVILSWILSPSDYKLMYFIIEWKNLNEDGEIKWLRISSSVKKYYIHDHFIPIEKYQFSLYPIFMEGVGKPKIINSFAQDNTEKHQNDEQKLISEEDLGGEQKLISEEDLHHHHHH

Row | 100 nM mfLEPR-MMH Bound (RU) | Kd [nM] | koff [s⁻¹] | kon [M⁻¹ s⁻¹] | t½ [min] | Binder
5 | 103 | 2.93 | 0.000128 | 43600 | 90 | B1
6 | 112 | 2.69 | 0.000121 | 45000 | 95 | B2
7 | 112 | 2.74 | 0.000126 | 45900 | 92 | B3
8 | 110 | 2.86 | 0.000124 | 43300 | 93 | B4

What follows are binders tested against T1, human LEPR extracellular domain … (assay: SPR Biacore 4000, bsAb captured by anti-human Fc, 37 C).
Method: as §1

Row | 100 nM hLEPR-MMH Bound (RU) | Kd [nM] | koff [s⁻¹] | kon [M⁻¹ s⁻¹] | t½ [min] | Binder
9 | 67 | 21.2 | 0.000762 | 35800 | 15 | B1
10 | 75 | 21.4 | 0.000818 | 38200 | 14 | B2
11 | 74 | 18.6 | 0.000633 | 34000 | 18 | B3
12 | 74 | 16.6 | 0.000589 | 35400 | 20 | B4

The binders below were run against T2, Macaca Fascicularis LEPR extracellular … in the same assay as above.
Method: as §1

Row | 100 nM mfLEPR-MMH Bound (RU) | Kd [nM] | koff [s⁻¹] | kon [M⁻¹ s⁻¹] | t½ [min] | Binder
13 | 163 | 5.42 | 0.000559 | 103000 | 21 | B1
14 | 175 | 5.6 | 0.000572 | 102000 | 20 | B2
15 | 172 | 5.57 | 0.000529 | 94900 | 22 | B3
16 | 173 | 5.05 | 0.000522 | 103000 | 22 | B4
